Test system: MS2 coat protein
Experiment: apparent KD of MS2 coat protein; designed switch direction (-1 OFF switch, 1 ON switch): -1; higher = weaker reporter binding
Outline: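 Designed RNA switches with common flanks were made on Illumina chips by stalled E. coli RNA polymerase. Titration with SNAP-549-labelled MS2 coat protein doubled from 0.7 or 1.5 nM up to 3 µM. Apparent KD is each design's median over clusters after curve-fitting normalised fluorescence.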

[1] = Eterna round: R95, input ligand: FMN 200 uM
[2] = Eterna round: R95, input ligand: microRNA oligo, concentration not stated
[3] = Eterna round: R95, input ligand: none
[4] = input ligand: microRNA oligo, concentration not stated

Row | Sequence | apparent KD of MS2 coat protein (input ligand: FMN 200 uM) | apparent KD of MS2 coat protein (input ligand: none) | apparent KD of MS2 coat protein [1] | apparent KD of MS2 coat protein [2] | apparent KD of MS2 coat protein [3] | apparent KD of MS2 coat protein [4]
1 | AAUAAGCGAGGAUAUACACCCGGAAAACGGGAACGGGCGAGACAUGAGGAUCACCCAUGUAGAAGGCGCGUCAA [Sogexe] (Eterna round: R97, puzzle: Exclusion 2) | 28 nM | 77.9 nM | – | – | – | –
2 | GAGGCAUGCCGAGGUCCACACAUGAGGAUCACCCAUGUCAUGACAGGCUUUUUACUCGUUUUAUCGCUAUCGCGUUC [Vebizaledi] (puzzle: Sensor v3, turn-off variant 1) | – | – | 84.8 nM | 159 nM | 70.7 nM | –
3 | AAAUAGCAUGAGGAUAUUGAACUGUAUAUAGUACGAGAAGGCAUGACAUGAGGAUCACCCAUGUUUUGUUGGGA [EX6 #3] (Eterna round: R97, puzzle: Exclusion 6) | 114 nM | 33.2 nM | – | – | – | –
4 | CCCGUCGAUGUAGGAUAUGCCCGGGUCUCCCGGGCAGAAGGACAUGAGGAUCACCCAUGUUCAUGAGGGUCGCCCAUGAAUGGG [Double but mutated MS2] (Eterna round: R96, puzzle: Exclusion NG 1) | 88.8 nM | 21.2 nM | – | – | – | 17 nM
5 | UUUUUAUAUGAAGGAUAUACUUAACAUGAGGAUCACCCAUGUGGUGUUGUGAGUGAGUGAGUUUAGUAGAAGGUCAAUAAUUUU [JMF's solution 9] (Eterna round: R96, puzzle: Exclusion NG 2) | 996 nM | 286 nM | – | – | – | 180 nM
6 | GAGUACUGAGGAUAUACAUGAGGAUCACCCAUGUGUUCCAACUAGGAAUCUAGAAUGUGUAGAAGGCAGUGCUG [salish99_ex3_r4_703] (Eterna round: R97, puzzle: Exclusion 3) | 298 nM | 262 nM | – | – | – | –
7 | UCACGGGACUGAGGAUAUACAUGAACUAUUUUUGUAGAAGGCAGAAUGUUAGAUUAUACACUAAACAUGAGGAUCACCCAUGUU [JR_ExcNG1_Sub024] (Eterna round: R96, puzzle: Exclusion NG 1) | – | – | – | – | – | 15.1 nM
8 | ACAUGAGGAUCACCCAUGUGAAAACAAUGGCUGACUUUGAGACAGGAUAUUCGUGCAUAUCAAACGAAGAAGGGUCAUUACUGG [Deportation 94 - Jieux - Exclusion NG 3] (Eterna round: R96, puzzle: Exclusion NG 3) | 42.2 nM | 37.7 nM | – | – | – | 26.4 nM
9 | ACCAAGUCAGGAUAUCCAGUUAGCCUUCGAGGCUGGGAAUAGGAGAAGGGACAUGAGGAUCACCCAUGUGGGCC [Eternabot (L2) Solution 78] (Eterna round: R97, puzzle: Exclusion 4) | 215 nM | 54.4 nM | – | – | – | –
10 | CAAAAGCUAGGAUAUUGAGGUGGGCACAUGAGGAUCACCCAUGUGGACCUCGAGCCUACGCAAGAAGGAGUAAAAU [Rioren] (puzzle: Exclusion 5) | – | – | 18 nM | 13.1 nM | 17 nM | –
11 | CUUUCGUGAGGAUAUGUGGCUAAAAUCGUGAGAUCGAGGCUACAGAAGGCACAUGAGGAUCACCCAUGUUCCUC [salish99_ex4_r4_212] (Eterna round: R97, puzzle: Exclusion 4) | 379 nM | 38.3 nM | – | – | – | –
12 | ACAUGAGGAUCACCCAUGUGACCACAAUGGCUGAUGUAACGACAGGAUAUUCGUGAAUAUCUAACGAAGAAGGGUCAUGACUGG [Deportation 62 - Jieux - Exclusion NG 3] (Eterna round: R96, puzzle: Exclusion NG 3) | 98.8 nM | 60.2 nM | – | – | – | 52.7 nM
13 | AAAAAACAAGGAUAUACGUAUGAGGAUUGUCUUAAUUUUUGACAUGAGGAUCACCCAUGUAGAAGGUGUUAAAA [JR_Exclusion2_Sub015] (puzzle: Exclusion 2) | – | – | – | 94.9 nM | – | –
14 | AGCUGUGGCCGAGGAUAUCUAGCUUCAAUAACCGAAAUAUAAUCGGACAUGAGGAUCACCCAUGUAGAGAAGGCGGUCUCAGCA [Eli eng2 - 084] (Eterna round: R96, puzzle: Exclusion NG 2) | – | – | – | – | – | 22.3 nM
15 | UUUUUAGAUGAAGGAUAUACUUAACAUGAGGAUCACCCAUGUGGUGUUGUGAGUGAGUGAGUUUAGUAGAAGGUCAAGUAUUUU [JMF's solution 45] (Eterna round: R96, puzzle: Exclusion NG 2) | 769 nM | 404 nM | – | – | – | 377 nM
16 | AUUUUAAUAUAGGAUAUCGAUUUUAUUAUUUAACGAGAAGGAUAAACAUGAGGAUCACCCAUGUGGUAUCAUGG [JMFs Solution 3] (puzzle: Exclusion 6) | – | – | – | 123 nM | – | –
17 | UUAAUGUGAGGAUAUCAGGUGUGCUAGCGUACUGGUACAUCUGAGAAGGCACAUGAGGAUCACCCAUGUUCCAG [JL-ex4-3.29 Brourd mod] (puzzle: Exclusion 4) | – | – | – | 30.5 nM | – | –

Row | Sequence | apparent KD of MS2 coat protein (input ligand: FMN 200 uM) | apparent KD of MS2 coat protein (input ligand: none) | apparent KD of MS2 coat protein [1] | apparent KD of MS2 coat protein [2] | apparent KD of MS2 coat protein [3] | apparent KD of MS2 coat protein [4]
18 | CCGGAACAUGAGGAUCACCCAUGUCAGGAUAUGAAUAAAUCGUCGAAAGACGAUAAUCUCAGAAGGGACACCGG [Eli 4.28] (Eterna round: R97, puzzle: Exclusion 1) | 22.7 nM | 19.6 nM | – | – | – | –
19 | UCGUCCUGUGUAGGAUAUCGCGGGCUUUGCCCGCGAGAAGGACAUGAGGAUCACCCAUGUGGGCCGCGCCGCGGGCGCGGCCCA [new design] (Eterna round: R96, puzzle: Exclusion NG 1) | 1360 nM | 230 nM | – | – | – | 4700 nM
20 | UAAAUGCUGCGAGGAUAUACAUGAGGAUCACCCAUGUGGAUGUCUGAGGCUUUGCCUCAGACGAUGUAGAAGGCGCAGUAAAAU [Mat - Exclusion NG 2 - Mod of JL - D52] (Eterna round: R96, puzzle: Exclusion NG 2) | 134 nM | 22.5 nM | – | – | – | 15.7 nM
21 | ACAUGAGGAUCACCCAUGUAAUGAUGGGUACUAUAUUAUUCGUAGGAUAUCGUUGUUAGUUUGUGCGAGAAGGACGAUUGCUUU [JR_ExcNG3_Sub057] (Eterna round: R96, puzzle: Exclusion NG 3) | – | – | – | – | – | 733 nM
22 | AGCUGUGGCCGAGGAUAUCUAUCUUCAAUAACCGAAAUAUAAUCGGACAUGAGGAUCACCCAUGUAGAGAAGGCGGUCUCAGCA [Eli eng2 - 091] (Eterna round: R96, puzzle: Exclusion NG 2) | – | – | – | – | – | 27.3 nM
23 | CUUCAAGCACCAGAGCUCACACUUAUACCUGCUCUGGUGACAUGAGGAUCACCCAUGUUUUUUGCCCGUCUUAUCUU [Sensor v3, turn-off variant 2 (MOD of Leso v.2)] (Eterna round: R96, puzzle: Sensor v3, turn-off variant 2) | 178 nM | 250 nM | – | – | – | 101 nM
24 | AGAACAUGAGGAUCACCCAUGUCGCUUUGCCUACCAAACAGGGAGGAUAUGUAGGGCGCGCACCUACAGAAGGCCCAAACGGAA [Eternabot solution 13] (Eterna round: R96, puzzle: Exclusion NG 3) | 17 nM | 22.5 nM | – | – | – | 18.5 nM
25 | AAGUACCGUCACGAUAGUGAUGGUACAACAGGUAAAUGUACAUGAGGAUCACCCAUGUCCUCUUUUGCUCGUCUUAU [Sensor 3 - 93] (puzzle: Sensor v3, turn-off variant 2) | – | – | 147 nM | 36.2 nM | 160 nM | –
26 | AUUAAUGUCAAAGGAUAUCAGCACGUUUAGUGCUGAGAAGGUUGAACAUGAGGAUCACCCAUGUAGAUCAUUAAUAAUUUAAUU [ENG1/10-B1] (Eterna round: R96, puzzle: Exclusion NG 1) | 23.5 nM | 18.2 nM | – | – | – | 18.9 nM
27 | AAUGUGUAAGGAUAUCCGAAAAGCGAGCGAAAGCGAGCGAAGGAGAAGGUACAUGAGGAUCACCCAUGUAAGGG [AK-MS2ROC-r4-exclusion4-11.6] (Eterna round: R97, puzzle: Exclusion 4) | 71.5 nM | 530 nM | – | – | – | –
28 | UCGUGUAUAGAGGAUAUAUUAUUUAUUUAAACAAUAGAAGGCUAAACAUGAGGAUCACCCAUGUAUUUGGUUUU [JR_Ex6_Sub052] (Eterna round: R97, puzzle: Exclusion 6) | 59.9 nM | 21.8 nM | – | – | – | –
29 | UGCCUAAGAGGAUAUACAUAGAAAUAGAUUCAUGUAAAACUACAUGAGGAUCACCCAUGUAGAAGGCUUGGGCU [Mat - Exclusion 2 - JL Mod - D54] (Eterna round: R97, puzzle: Exclusion 2) | 155 nM | 27.6 nM | – | – | – | –
30 | GUGCCGCGAGGAUAUACAGACGGGUCCAUUACGUGUCUCGGACUUGAGGAUCACCCAAGUAGAAGGCGUCUCGG [salish99_ex2_r4_627] (Eterna round: R97, puzzle: Exclusion 2) | 26 nM | 27.9 nM | – | – | – | –
31 | GUCAGGAAUGUAGGAUAUCUGCACGAUUAGUGCAGAGAAGGACAUGAGGAUCACCCAUGUAUAGUAGCUUCGGCUACACCUGAC [ENG1-A1] (Eterna round: R96, puzzle: Exclusion NG 1) | 16.7 nM | 19.5 nM | – | – | – | 14 nM
32 | GUGAGCAGACGGAGAUCCUACAUGAGGAUCACCCAUGUCUCACUAGCUUUUUGCUCGUCUUAUCCUCCUCUGUUCUC [Elimod 25 - Jieux - Sensor, turn-off variant 1] (Eterna round: R97, puzzle: Sensor, turn-off variant 1) | 176 nM | 201 nM | – | – | – | –
33 | GAGUGACAUGAGGAUCACCCAUGUGAGGAUAUGCGAUGGACCAAAUUAACAAUAGAAGGCAGAAGGCGCAUAAA [Exclusion 1 V9] (puzzle: Exclusion 1) | – | – | 41.4 nM | 34.8 nM | 41.1 nM | –

Source: the supplement of paper PMC9170038
